How the values were obtained:
[1] = target: IL-22 receptors on COLO205 cells (UniProt Q8N6P7)
[2] = target: IL-22 receptors on COLO205 cells (UniProt Q8N6P7); remark: listed apart in the source

IL-22 receptors on COLO205 cells, sequence (Q8N6P7 16-574 limits assumed, chain 1 of 2): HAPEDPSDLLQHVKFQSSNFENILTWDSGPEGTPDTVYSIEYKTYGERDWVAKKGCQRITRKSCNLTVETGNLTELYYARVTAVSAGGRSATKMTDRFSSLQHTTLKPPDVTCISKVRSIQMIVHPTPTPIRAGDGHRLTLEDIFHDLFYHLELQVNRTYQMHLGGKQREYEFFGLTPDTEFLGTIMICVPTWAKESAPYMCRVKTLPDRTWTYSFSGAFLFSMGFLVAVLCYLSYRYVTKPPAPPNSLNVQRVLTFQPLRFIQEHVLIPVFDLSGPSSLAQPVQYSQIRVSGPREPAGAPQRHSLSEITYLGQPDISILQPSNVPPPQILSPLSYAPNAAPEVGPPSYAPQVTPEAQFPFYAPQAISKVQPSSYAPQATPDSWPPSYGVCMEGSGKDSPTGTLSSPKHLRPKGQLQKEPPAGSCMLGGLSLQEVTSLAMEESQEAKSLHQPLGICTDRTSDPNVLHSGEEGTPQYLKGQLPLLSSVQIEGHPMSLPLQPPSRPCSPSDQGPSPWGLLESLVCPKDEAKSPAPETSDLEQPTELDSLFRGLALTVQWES
IL-22 receptors on COLO205 cells, sequence (Q08334 20-325 limits assumed, chain 2 of 2, further chain): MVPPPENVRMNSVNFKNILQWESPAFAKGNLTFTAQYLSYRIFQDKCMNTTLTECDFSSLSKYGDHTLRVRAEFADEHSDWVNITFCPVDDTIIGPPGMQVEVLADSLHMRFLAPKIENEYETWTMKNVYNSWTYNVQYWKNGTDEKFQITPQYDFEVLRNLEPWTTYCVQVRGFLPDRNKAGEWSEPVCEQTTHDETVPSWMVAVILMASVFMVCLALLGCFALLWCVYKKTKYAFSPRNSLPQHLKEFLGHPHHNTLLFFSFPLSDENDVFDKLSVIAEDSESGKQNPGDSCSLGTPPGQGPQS

“human IL-22 (from UniProt Q9GZX6) (ligand)” gave an EC50 (read off the curve) of IL-10 secretion by COLO205 cells, human IL-22 without uPA [1] of 0.08 nM and an EC50 (read off the curve) of IL-10 secretion by COLO205 cells, human IL-22 incubated with uPA [2] of 0.05 nM.
